Measurements from US11549123B2, “Plant EPSP synthases and methods of use” (PIONEER HI-BRED INTERNATIONAL, INC., priority 2015, dated 2023).

How the values were obtained:
sorghum EPSPS = experiment: EPSPS reaction rates at 200 uM PEP and S3P, and at 30 uM substrates with 1 mM glyphosate; type: biochemical, Sorghum halepense; conditions: Sor ha; for Reaction rate, 200 uM, no glyph: PEP and S3P both at 200 uM, no glyphosate; for Reaction rate, 30 uM, 1 mM glyph: substrates at 30 uM, glyphosate at 1 mM
Protocol: (§1) EPSPS activity was determined by quantifying the phosphate generated from the EPSPS reaction. Release of inorganic phosphate was coupled to reaction with 2-amino-6-mercapto-7-methylpurine ribonucleoside, catalyzed by purine-nucleoside phosphorylase (M R Webb, Proc. Natl. Acad. Sci. 89:4884-4887, 1992). The absorbance change that occurs was monitored at 360 nm, where the extinction is 11,200 M^−1 cm^−1, with a Spectramax plate reader (Molecular Devices). To determine kinetic parameters, the varied substrate was present at seven concentrations (the eighth being the blank, containing no substrate) ranging from 4 to 400 uM and the unvaried substrate present at saturation. Six microliters of 50-fold concentrated stock solutions of the varied substrate were placed in the wells of the 96-well assay plate and reactions were started with the addition of a mixture containing 25 mM Hepes, pH 7, 100 mM KCl, 0.3 mM 2-amino-6-mercapto-7-methylpurine ribonucleosde, 1 uM (1 unit/ml) purine-nucleoside phosphorylase (Sigma N8264) and 200 uM of the non-varied substrate. Reactions were monitored with a Spectramax plate reader. The Michaelis-Menten kinetics protocol of the Spectramax software was customized for the substrate concentrations used. The software returns values of KM and Vmax using the Lineweaver-Burke transformation of the Michaelis-Menten equation. To determine kcat, Vmax (uM/min) was divided by the enzyme concentration (uM). […] KI was then calculated from the following form of the Michaelis-Menten equation for competitive inhibition: KI=KM[I]/(KM app−KM) KM approximates the dissociation constant of the enzyme-substrate complex while kcat is the rate of conversion of substrate to product when the substrate concentration is saturating. kcat/KM is a widely accepted parameter for catalytic efficiency when substrate concentration is low (˜KM). […] The parameter kcat/KM×KI is used to quantify both catalytic efficiency and insensitivity and thus the overall fitness of the enzyme.
Likewise, the mutations present in maize EPSPS 123-C1 (See Table 8) were mapped onto the amino acid sequences of sorghum (SEQ ID NO:23) and the proteins were produced and purified as above.

[1] = substrate: C=C(OP(=O)(O)O)C(=O)O; experiment: EPSPS substrate saturation kinetics, WT-FS-E; type: biochemical, Zea mays; conditions: other: PEP varied; pH 7.0
Protocol: as §1, with “reader.” for “reader. The Michaelis-Menten kinetics protocol of the Spectramax software was customized for the substrate concentrations used. The software returns values of KM and Vmax using the Lineweaver-Burke transformation of the Michaelis-Menten equation. To determine kcat, Vmax (uM/min) was divided by the enzyme concentration (uM).”, “enzyme. […]” for “enzyme.”
The vector DNA of the library was transformed into the BL21(DE3) Tuner AroA knockout strain and the cells were plated onto M9 medium containing 50 mM glyphosate. A small aliquot of the transformed cells was plated on LB, by which it was determined that 1.1×10^8 colony forming units, or 20% of the theoretical library size, were plated and screened. […]

[2] = substrate: C=C(OP(=O)(O)O)C(=O)O; experiment: purified protein, by the assay type; conditions: pH 7.0
[3] = tested on: Glycine max (93Y21) hairy root; experiment: Hairy root growth from transformed soybean cotyledons with or without 25 uM glyphosate; type: cell-based; conditions: constructs containing the UBQ10 promoter
[4] = other: substrate saturation, Zm native
[5] = other: substrate saturation, Zm-P107L
[6] = other: substrate saturation, Zm-G102A

B1: Sor ha C1 mutations: mutated version of the EPSPS sequence from sorghum that contains the 123-C1 mutations (protein)
chain: ARGWEEIVLQPIKEISGTVKLPGSKSLSNRILLLAALSEGTTVVDNLLNSEDVHYMLGALNTLGLSVEADKVAKRAVVVGCGGRFPVEDAKEEVQLFCGNAATAMRPLTAAVTAAGGNATYVLDGVPRMRERPIGDLVVGLKQLGADVDCFLGTDCPPVRINGIGGLPGGKVKLSGSISSQYLSALLMAAPLALGDVEIEIIDKLISLPYVEMTLRLMERFGVKAEHSDSWDRFYIKGGQKYESPKNAYVEGDASSASYFLAGAAITGGTVTVEGCGTTSLQGDVKFAEVLEMMGAKVTWTETSVTVTGPPRQPFGRKHLKAIDVNMNKMPDVAMTLAVVALFADGPTAIRDVASWRVKETERMVAIRTELTKLGASVEEGPDYCIITPPPKLNVTAIDTYGDHRMAMAFSLAACAEVPVTIRDPGCTRKTFPDYFDVLSTFVKN
modifications: Sorghum halapense H6T5X2 with C1 mutations
**Q.** Which “Reaction rate, 200 uM, no glyph” value (sorghum EPSPS) does the source give for B1 here?
**A.** 356

**Q.** And the “Reaction rate, 30 uM, 1 mM glyph” value (sorghum EPSPS)?
**A.** 60.0

B2: Zea mays EPSPS variant WT-FS-E (102A 302S 391G 438R) (Zea mays; E301S/E390G/G101A/V437R) (protein)
chain: MAGAEEIVLQPIKEISGTVKLPGSKSLSNRILLLAALSEGTTVVDNLLNSEDVHYMLGALRTLGLSVEADKAAKRAVVVGCGGKFPVEDAKEEVQLFLGNAATAMRPLTAAVTAAGGNATYVLDGVPRMRERPIGDLVVGLKQLGADVDCFLGTDCPPVRVNGIGGLPGGKVKLSGSISSQYLSALLMAAPLALGDVEIEIIDKLISIPYVEMTLRLMERFGVKAEHSDSWDRFYIKGGQKYKSPKNAYVEGDASSASYFLAGAAITGGTVTVEGCGTTSLQGDVKFAEVLEMMGAKVTWTSTSVTVTGPPREPFGRKHLKAIDVNMNKMPDVAMTLAVVALFADGPTAIRDVASWRVKETERMVAIRTELTKLGASVEEGPDYCIITPPGKLNVTAIDTYDDHRMAMAFSLAACAEVPVTIRDPGCTRKTFPDYFDRLSTFVKN
**Q.** Which Km [1] does the source give for B2 here?
**A.** 165 µM

**Q.** And the kcat [1]?
**A.** 6.63 s⁻¹

**Q.** What about the kcat/Km [1] of the same molecule?
**A.** 2.41 min^−1uM^−1

B3: Zea mays EPSPS, native, SEQ ID NO:2 (Zea mays) (protein)
chain: MAGAEEIVLQPIKEISGTVKLPGSKSLSNRILLLAALSEGTTVVDNLLNSEDVHYMLGALRTLGLSVEADKAAKRAVVVGCGGKFPVEDAKEEVQLFLGNAGTAMRPLTAAVTAAGGNATYVLDGVPRMRERPIGDLVVGLKQLGADVDCFLGTDCPPVRVNGIGGLPGGKVKLSGSISSQYLSALLMAAPLALGDVEIEIIDKLISIPYVEMTLRLMERFGVKAEHSDSWDRFYIKGGQKYKSPKNAYVEGDASSASYFLAGAAITGGTVTVEGCGTTSLQGDVKFAEVLEMMGAKVTWTETSVTVTGPPREPFGRKHLKAIDVNMNKMPDVAMTLAVVALFADGPTAIRDVASWRVKETERMVAIRTELTKLGASVEEGPDYCIITPPEKLNVTAIDTYDDHRMAMAFSLAACAEVPVTIRDPGCTRKTFPDYFDVLSTFVKN
**Q.** B3 was tested. Which Km [2, 4] did it give?
**A.** 11.0 µM

**Q.** And the kcat [2, 4]?
**A.** 17.27 s⁻¹

B4: Zea mays EPSPS variant P107L (Zea mays; P106L) (protein)
chain: MAGAEEIVLQPIKEISGTVKLPGSKSLSNRILLLAALSEGTTVVDNLLNSEDVHYMLGALRTLGLSVEADKAAKRAVVVGCGGKFPVEDAKEEVQLFLGNAGTAMRLLTAAVTAAGGNATYVLDGVPRMRERPIGDLVVGLKQLGADVDCFLGTDCPPVRVNGIGGLPGGKVKLSGSISSQYLSALLMAAPLALGDVEIEIIDKLISIPYVEMTLRLMERFGVKAEHSDSWDRFYIKGGQKYKSPKNAYVEGDASSASYFLAGAAITGGTVTVEGCGTTSLQGDVKFAEVLEMMGAKVTWTETSVTVTGPPREPFGRKHLKAIDVNMNKMPDVAMTLAVVALFADGPTAIRDVASWRVKETERMVAIRTELTKLGASVEEGPDYCIITPPEKLNVTAIDTYDDHRMAMAFSLAACAEVPVTIRDPGCTRKTFPDYFDVLSTFVKN
**Q.** B4 was tested. Which Km ([2]; other: PEP varied) did it give?
**A.** 67.1 µM

**Q.** What about the Km [2, 5] of the same molecule?
**A.** 59.7 µM

**Q.** And the kcat [2, 5]?
**A.** 22.93 s⁻¹

B5: Zea mays EPSPS variant G102A (Zea mays; G101A) (protein)
chain: MAGAEEIVLQPIKEISGTVKLPGSKSLSNRILLLAALSEGTTVVDNLLNSEDVHYMLGALRTLGLSVEADKAAKRAVVVGCGGKFPVEDAKEEVQLFLGNAATAMRPLTAAVTAAGGNATYVLDGVPRMRERPIGDLVVGLKQLGADVDCFLGTDCPPVRVNGIGGLPGGKVKLSGSISSQYLSALLMAAPLALGDVEIEIIDKLISIPYVEMTLRLMERFGVKAEHSDSWDRFYIKGGQKYKSPKNAYVEGDASSASYFLAGAAITGGTVTVEGCGTTSLQGDVKFAEVLEMMGAKVTWTETSVTVTGPPREPFGRKHLKAIDVNMNKMPDVAMTLAVVALFADGPTAIRDVASWRVKETERMVAIRTELTKLGASVEEGPDYCIITPPEKLNVTAIDTYDDHRMAMAFSLAACAEVPVTIRDPGCTRKTFPDYFDVLSTFVKN
**Q.** With B5 as the molecule, how does the Km ([2]; other: PEP varied) read?
**A.** 310 µM

**Q.** What about the Km [2, 6] of the same molecule?
**A.** 407 µM

**Q.** What about the kcat [2, 6] of the same molecule?
**A.** 14.3 s⁻¹

B6: Sor ha, native: native EPSPS from sorghum (Sorghum halepense) (protein)
chain: AAGAEEIVLQPIKEISGTVKLPGSKSLSNRILLLAALSEGTTVVDNLLNSEDVHYMLGALNTLGLSVEADKVAKRAVVVGCGGKFPVEDAKEEVQLFLGNAGTAMRPLTAAVTAAGGNATYVLDGVPRMRERPIGDLVVGLKQLGADVDCFLGTDCPPVRINGIGGLPGGKVKLSGSISSQYLSALLMAAPLALGDVEIEIIDKLISIPYVEMTLRLMERFGVKAEHSDSWDRFYIKGGQKYKSPKNAYVEGDASSASYFLAGAAITGGTVTVEGCGTTSLQGDVKFAEVLEMMGAKVTWTETSVTVTGPPRQPFGRKHLKAIDVNMNKMPDVAMTLAVVALFADGPTAIRDVASWRVKETERMVAIRTELTKLGASVEEGPDYCIITPPEKLNVTAIDTYDDHRMAMAFSLAACAEVPVTIRDPGCTRKTFPDYFDVLSTFVKN
modifications: Sorghum halapense
**Q.** For B6, which “Reaction rate, 200 uM, no glyph” value (sorghum EPSPS) is on record?
**A.** 1376

**Q.** And the “Reaction rate, 30 uM, 1 mM glyph” value (sorghum EPSPS)?
**A.** −2.2

B7: 868-H6: maize EPSPS with A2R, A4W, A72Q, K84R, L98C, G102A, I208L, T279A, E302S, T361S, E391G, D402G, A416G, V438R, T441Q (protein)
chain: MRGWEEIVLQPIKEISGTVKLPGSKSLSNRILLLAALSEGTTVVDNLLNSEDVHYMLGALRTLGLSVEADKQAKRAVVVGCGGRFPVEDAKEEVQLFCGNAATAMRPLTAAVTAAGGNATYVLDGVPRMRERPIGDLVVGLKQLGADVDCFLGTDCPPVRVNGIGGLPGGKVKLSGSISSQYLSALLMAAPLALGDVEIEIIDKLISLPYVEMTLRLMERFGVKAEHSDSWDRFYIKGGQKYKSPKNAYVEGDASSASYFLAGAAITGGTVTVEGCGTASLQGDVKFAEVLEMMGAKVTWTSTSVTVTGPPREPFGRKHLKAIDVNMNKMPDVAMTLAVVALFADGPTAIRDVASWRVKESERMVAIRTELTKLGASVEEGPDYCIITPPGKLNVTAIDTYGDHRMAMAFSLAACGEVPVTIRDPGCTRKTFPDYFDRLSQFVKN
modifications: maize clone 868-H6
notes: maize EPSPS with A2R, A4W, A72Q, K84R, L98C, G102A, I208L, T279A, E302S, T361S, E391G, D402G, A416G, V438R, T441Q
**Q.** Which “hairy root growth in the presence of 25 uM glyphosate” value [3] does the source give for B7 here?
**A.** generated hairy roots

B8: 771-C2: maize EPSPS with A4W, H54M, L98C, G102A, K173R, I208L, K243E, E302S, T361S, E391P, D402G, A416G, V438R, S440R, T441Q, F442V (protein)
chain: MAGWEEIVLQPIKEISGTVKLPGSKSLSNRILLLAALSEGTTVVDNLLNSEDVMYMLGALRTLGLSVEADKAAKRAVVVGCGGKFPVEDAKEEVQLFCGNAATAMRPLTAAVTAAGGNATYVLDGVPRMRERPIGDLVVGLKQLGADVDCFLGTDCPPVRVNGIGGLPGGKVRLSGSISSQYLSALLMAAPLALGDVEIEIIDKLISLPYVEMTLRLMERFGVKAEHSDSWDRFYIKGGQKYESPKNAYVEGDASSASYFLAGAAITGGTVTVEGCGTTSLQGDVKFAEVLEMMGAKVTWTSTSVTVTGPPREPFGRKHLKAIDVNMNKMPDVAMTLAVVALFADGPTAIRDVASWRVKESERMVAIRTELTKLGASVEEGPDYCIITPPPKLNVTAIDTYGDHRMAMAFSLAACGEVPVTIRDPGCTRKTFPDYFDRLRQVVKN
modifications: maize clone 771-C2
notes: maize EPSPS with A4W, H54M, L98C, G102A, K173R, I208L, K243E, E302S, T361S, E391P, D402G, A416G, V438R, S440R, T441Q, F442V
**Q.** B8 was tested. Which “hairy root growth in the presence of 25 uM glyphosate” value [3] did it give?
**A.** generated hairy roots
